Source: patent US20040205843A1 (NORTH CAROLINA STATE UNIVERSITY, published 2004)
Numbering of substitutions follows the chain as printed.

T1: Full length GST-AL1 1-352 (tomato golden mosaic virus (TGMV), UniProt P03567 1-352)
T1 sequence: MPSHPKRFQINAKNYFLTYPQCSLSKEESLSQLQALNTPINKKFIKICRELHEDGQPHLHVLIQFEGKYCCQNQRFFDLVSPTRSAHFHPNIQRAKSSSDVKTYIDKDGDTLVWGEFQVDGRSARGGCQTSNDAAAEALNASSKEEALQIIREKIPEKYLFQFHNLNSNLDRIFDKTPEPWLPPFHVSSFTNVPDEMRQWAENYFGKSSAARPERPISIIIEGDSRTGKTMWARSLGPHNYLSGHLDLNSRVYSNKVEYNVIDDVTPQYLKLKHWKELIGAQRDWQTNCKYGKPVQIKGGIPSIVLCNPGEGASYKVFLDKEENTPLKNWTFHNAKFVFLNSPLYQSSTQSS

B1: AL1 Q-HN165 (Ala8) fused to the Gal4 activation domain (pNSB761) (other)
chain: T1 sequence with Q162A, H164A, N165A
B2: AL1 N-DR172 (Ala9) fused to the Gal4 activation domain (pNSB762) (other)
chain: T1 sequence with N169A, D171A, R172A
B3: AL1 E--N140 + KEE146 (Ala4+5) fused to the Gal4 activation domain (pNSB757) (other)
chain: T1 sequence with E137A, N140A, K144A, E145A, E146A
B4: AL1 D120 (Ala14) fused to the Gal4 activation domain (pNSB871) (other)
chain: T1 sequence with D120A
B5: AL1 REK154 (Ala6) fused to the Gal4 activation domain (pNSB759) (other)
chain: T1 sequence with R152A, E153A, K154A
B6: AL1 RS-R125 (Ala1) fused to the Gal4 activation domain (pNSB786) (other)
chain: T1 sequence with R122A, S123A, R125A
B7: AL1 FQ118 (Ala13) fused to the Gal4 activation domain (pNSB872) (other)
chain: T1 sequence with F117A, Q118A
B8: TGMV AL1, wild type, full length, untagged (other)
chain: T1 sequence
notes: also called Rep; authentic AL1
B9: AL1 Q-HN165 (Ala8), full length, untagged (other)
chain: T1 sequence with Q162A, H164A, N165A
B10: AL1 REK154 (Ala6), full length, untagged (other)
chain: T1 sequence with R152A, E153A, K154A
B11: AL1 KEE146 (Ala5), full length, untagged (other)
chain: T1 sequence with K144A, E145A, E146A
B12: AL1 K-E179 (Ala10), full length, untagged (other)
chain: T1 sequence with K176A, E179A
B13: AL1 E-N140 (Ala4), full length, untagged (other)
chain: T1 sequence with E137A, N140A
B14: AL1 N-DR172 (Ala9), full length, untagged (other)
chain: T1 sequence with N169A, D171A, R172A
B15: AL1 147-352 (other)
chain: ALQIIREKIPEKYLFQFHNLNSNLDRIFDKTPEPWLPPFHVSSFTNVPDEMRQWAENYFGKSSAARPERPISIIIEGDSRTGKTMWARSLGPHNYLSGHLDLNSRVYSNKVEYNVIDDVTPQYLKLKHWKELIGAQRDWQTNCKYGKPVQIKGGIPSIVLCNPGEGASYKVFLDKEENTPLKNWTFHNAKFVFLNSPLYQSSTQSS
B16: AL1 134-352 (other)
chain: AAAEALNASSKEEALQIIREKIPEKYLFQFHNLNSNLDRIFDKTPEPWLPPFHVSSFTNVPDEMRQWAENYFGKSSAARPERPISIIIEGDSRTGKTMWARSLGPHNYLSGHLDLNSRVYSNKVEYNVIDDVTPQYLKLKHWKELIGAQRDWQTNCKYGKPVQIKGGIPSIVLCNPGEGASYKVFLDKEENTPLKNWTFHNAKFVFLNSPLYQSSTQSS
B17: AL1 1-180 (other)
chain: MPSHPKRFQINAKNYFLTYPQCSLSKEESLSQLQALNTPINKKFIKICRELHEDGQPHLHVLIQFEGKYCCQNQRFFDLVSPTRSAHFHPNIQRAKSSSDVKTYIDKDGDTLVWGEFQVDGRSARGGCQTSNDAAAEALNASSKEEALQIIREKIPEKYLFQFHNLNSNLDRIFDKTPEP
B18: AL1 KEE146 (Ala5) fused to the Gal4 activation domain (pNSB894) (other)
chain: T1 sequence with K144A, E145A, E146A
B19: AL1 K144 fused to the Gal4 activation domain (pNSB916) (other)
chain: T1 sequence with K144A
B20: AL1 AAA136 (Leu) fused to the Gal4 activation domain (pNSB785) (other)
chain: T1 sequence with A134L, A135L, A136L
B21: AL1 EKY159 (Ala7) fused to the Gal4 activation domain (pNSB760) (other)
chain: T1 sequence with E157A, K158A, Y159A
B22: AL1 1-168 (other)
chain: MPSHPKRFQINAKNYFLTYPQCSLSKEESLSQLQALNTPINKKFIKICRELHEDGQPHLHVLIQFEGKYCCQNQRFFDLVSPTRSAHFHPNIQRAKSSSDVKTYIDKDGDTLVWGEFQVDGRSARGGCQTSNDAAAEALNASSKEEALQIIREKIPEKYLFQFHNLNS
B23: AL1 1-158 (other)
chain: MPSHPKRFQINAKNYFLTYPQCSLSKEESLSQLQALNTPINKKFIKICRELHEDGQPHLHVLIQFEGKYCCQNQRFFDLVSPTRSAHFHPNIQRAKSSSDVKTYIDKDGDTLVWGEFQVDGRSARGGCQTSNDAAAEALNASSKEEALQIIREKIPEK

Target: T2, Wild type TGMV AL1 fused to the Gal4 DNA binding domain (pNSB736) (tomato golden mosaic virus (TGMV))
Assay: not given

Binder | oligomer. (oligomerization activity relative to wild type)
B1 | 102 relative to wild type (100)
B2 | 31 relative to wild type (100)
B3 | 88 relative to wild type (100)
B4 | 67 relative to wild type (100)
B5 | 57 relative to wild type (100)
B6 | 27 relative to wild type (100)
B7 | 95 relative to wild type (100)

Target: T1, Full length GST-AL1 1-352
Assay: GST co-purification from insect cells, immunoblot

Binder | binding result
B8 | binds
B9 | binds
B10 | binds
B11 | binds
B12 | binds
B13 | binds
B14 | binds
B15 | binds
B16 | binds
B17 | binds

Target: T3, Maize Rb (amino acids 214-866) fused to the Gal4 DNA binding domain (Zm214C) (maize)
Assay: not given

T3 sequence (P04386 1-147): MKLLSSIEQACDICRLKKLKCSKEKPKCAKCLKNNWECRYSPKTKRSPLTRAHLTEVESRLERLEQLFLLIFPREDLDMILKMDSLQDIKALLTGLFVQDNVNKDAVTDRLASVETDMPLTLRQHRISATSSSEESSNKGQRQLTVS

Binder | fold reduction of RBR1 binding activity against wild type | RBR1 binding activity, percent of wild type | RBR1 interactions, percent of wild type levels
B5 | 2 fold |  | 
B18 |  | 16 % of wild type | 
B19 |  |  | 42 % of wild type

Target: T2, Wild type TGMV AL1 fused to the Gal4 …
Assay: yeast two-hybrid, beta-galactosidase activity

Binder | AL1 interactions, percent of wild type AL1/AL1 mediated activation
B18 | 51 % of wild type

Target: T2, Wild type TGMV AL1 fused to the Gal4 …
Assay: not given
Remark: another data set of the same source

Binder | oligomer. (oligomerization activity relative to wild type)
B20 | 30 relative to wild type (100)
B3 | 88 relative to wild type (100)
B5 | 57 relative to wild type (100)
B6 | 27 relative to wild type (100)
B7 | 95 relative to wild type (100)

Target: T3, Maize Rb (amino acids 214-866) fused to …
Assay: not given
Remark: another data set of the same source

Binder | Rep/Rb (Rb binding activity relative to wild type)
B20 | 8 relative to wild type (100)
B21 | 31 relative to wild type (100)
B3 | 45 relative to wild type (100)
B5 | 69 relative to wild type (100)
B6 | 20 relative to wild type (100)
B7 | 23 relative to wild type (100)

Target: T1, Full length GST-AL1 1-352
Assay: GST co-purification on glutathione-sepharose from insect cells, immunoblot

Binder | binding result
B22 | no binding
B23 | no binding
